The values below come from patent publication US8088892B2, “Inhibitors of proteins from the Rho-GEF family” (Centre National de la Recherche Scientifique (C.N.R.S.), priority 2002, dated 2012).

Entries after “also recorded” stand apart in the source; their conditions may differ.

One test relates to Lbc. In words: In vitro GEF assay on RhoA. It is filed as biochemical. Also on record: key to in vitro GEF assay (inhibition): +++^2 and +^2 represent respectively a full and a partial (see FIG. 3) inhibitory effect; +++^2 and +^2 represent respectively a full and a partial (see FIG. 3) inhibitory effect; −−^2 represents a lack of inhibitory effect. Particulars: for Effect on Lbc exchange activity on RhoA: 20-fold molar excess, Lbc 0.4 μM. The protocol: To test the specificity of TRIAPα inhibition in vitro, exchange experiments were performed either on RhoA with different RhoA-specific GEFs: Trio GEFD2 (0.4 μM), Kalirin GEFD2 (KalGEFD2, 1.7 μM), p63RhoGEF (Souchet et al., 2002) (0.4 μM) and Lbc (amino acids 172-598; Zheng et al., 1995) (0.4 μM), or on RhoG, with the RhoG-specific GEF domain of Trio (TrioGEFD1, 0.1 μM). Exchange assays were performed with the recombinant GEFs as described in FIG. 2A. Different concentrations of RhoGEFs were used to yield a similar nucleotide exchange efficiency. For each exchange factor, three independent experiments were done in absence (black bar) or in the presence (grey bar) of a 20-fold molar excess of TRIAPα.
An in vitro guanine nucleotide exchange (GEF) assay was used to test whether the TrioGEFD2-binding aptamers could inhibit the catalytic activity of TrioGEFD2 towards RhoA. For this purpose, the aptamers TRIAPα, TRIAPβ and TRIAPγ (including the Trx gene) were excised from pEG202 as EcoRI/NotI fragments and cloned into pGEX4T1 EcoRI/NotI. The aptamers were then expressed and purified from bacteria as GST fusion proteins, using standard procedures (Smith and Johnson, 1988). GTPase-GST fusion proteins were prepared, loaded with [^3H]GDP and the guanine nucleotide release assays were performed as described (Debant et al., 1996), using recombinant GST-TrioGEFD2 (a.a. 1848-2298), TrioDH2 (a.a. 1848-2096). For each point, 0.3 μM GTPase was mixed with or without 0.4 μM GEF in presence of non-labeled GTP, and the reaction mix was filtered after 0 min and 15 mm reaction at 25° C. The catalytic activity of TrioGEFD2 was thus measured by the decrease of the GTPase-associated radioactivity. The results are expressed as the ratio “exchange after 15 min over exchange after 0 min” (% bound [^3H]GDP-RhoA). To measure the effect of the aptamers on the exchange activity, a 20-fold molar excess of GST-TRIAPs was pre-incubated with GEFD2 (or GEFD1) for 30 min on ice before the exchange assay was carried out. For each experiment, data were obtained in triplicate.
The effect of GST-TRIAPα on other Rho-GEFs that display in vitro exchange activity on RhoA was next tested to investigate whether TRIAPα inhibition was specific of TrioGEFD2. The exchange activities of the RhoGEF Lbc (a.a. 1-424, FIG. 3)(Zheng et al., 1995) and Dbl (a.a. 495-826, data not shown) were not affected by GST-TRIAPα. The effect of GST-TRIAPα on the catalytic activity of RhoGEFs that display a high sequence similarity with TrioGEFD2 was then tested: the recently identified RhoA-specific p63RhoGEF (Souchet et al., 2002) (a.a. 149-374, 71.5% identity with TrioGEFD2, 0.4 μM) and the second Rho-GEF domain of the Trio family member Kalirin (KalGEFD2, a.a. 1850-2190, 65% identity with TrioGEFD2, 1.7 μM). Different concentrations of RhoGEFs were used to yield similar nucleotide exchange […]. For each exchange factor, three independent experiments were done in absence or in the presence of a 20-fold molar excess of GST-TRIAPα. […] Thus, the in vitro inhibitory activity of TRIAPα was selective for TrioGEFD2 (see table I for summary of the tested RhoGEFs).

In the next test the target is T1, TrioGEFD1 (DH1PH1) (Homo sapiens, UniProt O75962).
T1 construct: TrioGEFD1 (a.a. 1232-1629); expressed in transfected cells; host or cells: yeast
In words: Binding specificity of aptamers in yeast. Also on record: key to Binding in yeast: +++^1 and +^1 represent respectively a full and a partial (see FIG. 1) binding capacity; +++^1 and +^1 represent respectively a full and a partial (see FIG. 1) binding capacity; −−^1 represents a lack of binding. The source says: (§1) Trx represents the thioredoxin protein with no inserted peptide.
(§2) In order to identify specific inhibitors of TrioGEFD2, a recently developed strategy was used, this strategy being derived from the yeast two hybrid system, where the cDNA library of preys has been replaced by a combinatorial library of short peptides (20 amino acids) in fusion with the bacterial protein thioredoxin A (Colas et al., 1996). This strategy has been successfully used to isolate specific inhibitors of the cyclin-dependent kinases (Cdks), the cell cycle transcription factor E2F, or the viral HPV16 E6 oncoprotein and HBEV core protein (Colas et al., 1996; Butz et al., 2001; Fabrizzio et al., 1999; Geyer et al., 2000). The TrioGEFD2 bait was constructed as follows: plasmid pMTHATrio1848-2298 (Bellanger et al., 1998) was digested with EcoRI/XhoI and the insert cloned in pEG202EcoRI/XhoI to generate the bait pEG202TroGEFD2. Yeast strain EGY048 (Colas et al., 1996) was transformed with pEG202TrioGEFD2 and subsequently with the library of Thioredoxin constrained aptamers according to standard procedures (Ito et al., 1983). After transformation, cells were allowed to recover for 4 hours in galactose containing medium before plating on selective galactose medium. Of the 2×10^6 screened colonies, those growing in the selective medium were recovered and retested for interaction. […] Binding specificity was investigated by screening for interaction with the following baits: TrioDH2 (a.a. 1848-2096), TrioPH2 (a.a. 2107-2223), TrioGEFD1 (a.a. 1232-1629), Dbl (a.a. 498-826), Vav (ala. 172-598) (Zhang et al, 1994), GEFD2 domain of Kalirin (a.a. 1640-1980)(Penzes et al., 2001), p115RhoGEF (a.a. 391-870)(Wells et al, 2002) and PDZRhoGEF (a.a. 964-1362) (Fukuhara et al., 1999). None of these aptamers interacted with other RhoGEF members such as Dbl, Vav, and the RhoA-specific GEFs p115RhoGEF and PDZRhoGEF.

A further test addresses T2, GEFD2 domain of Kalirin (Rattus norvegicus, UniProt P97924).
T2 construct: GEFD2 domain of Kalirin (a.a. 1640-1980); expressed in transfected cells; host or cells: yeast
In words: Binding specificity of aptamers in yeast. Details: key to Binding in yeast: +++^1 and +^1 represent respectively a full and a partial (see FIG. 1) binding capacity; +++^1 and +^1 represent respectively a full and a partial (see FIG. 1) binding capacity; −−^1 represents a lack of binding.
Description: as §1, §2

Chain of Lbc (Q12802 1994-2333 limits assumed): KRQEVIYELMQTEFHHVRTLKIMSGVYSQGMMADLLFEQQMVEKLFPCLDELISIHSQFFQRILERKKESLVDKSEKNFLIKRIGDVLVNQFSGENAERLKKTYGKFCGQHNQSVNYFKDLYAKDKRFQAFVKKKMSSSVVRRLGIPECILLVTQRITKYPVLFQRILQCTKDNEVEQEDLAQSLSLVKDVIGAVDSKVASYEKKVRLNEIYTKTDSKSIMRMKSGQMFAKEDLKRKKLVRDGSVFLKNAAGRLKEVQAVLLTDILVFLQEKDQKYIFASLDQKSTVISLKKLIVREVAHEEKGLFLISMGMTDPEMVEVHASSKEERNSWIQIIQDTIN

B1: TRIAPα: aptamer of 154 amino acids: variable region of 42 amino acids inserted into the thioredoxin protein; tested as GST fusion (protein)
chain: MSDKIIHLTDDSFDTDVLKADGAILVDFWAEWCGPAREGADGAICGYNLATLVMLGPSERVFCPLCEPCSSDIYELMGPCKMIAPILDEIADEYQGKLTVAKLNIDQNPGTAPKYGIRGIPTLLLFKNGEVASATKVGALSKGQLKEFLDANLA
On to B1, for which the “Effect on Lbc exchange activity on RhoA” value in the test with Lbc was “has no effect”; in the test on Lbc (listed as GST-TRIAPα), “not affected”. Also, the “in vitro GEF assay (inhibition)” value in the test on Lbc (RhoGEF Lbc) is reported as “−−^2”. Moreover, the Binding in yeast entry with TrioGEFD1 (DH1PH1) (RhoGEF TrioDH1PH1) and in the test with GEFD2 domain of Kalirin (RhoGEF KalirinDH2PH2) was “+^1” each time. For the same molecule, the “Binding to TrioGEFD1 (DH1PH1) in yeast” value with TrioGEFD1 (DH1PH1) (growth on selective medium) was “weakly interacts; also recorded: interacted weakly; also recorded: bound TrioGEFD1 in yeast”. In addition, the “Binding to the second RhoGEF domain of Kalirin in yeast” value with GEFD2 domain of Kalirin (growth on selective medium) was “weakly interacts; also recorded: interacted weakly”.
